The values below come from publication doi:10.1101/2025.09.17.674891 (bioRxiv, 2025).

Experiment [1] concerns the target T1, SARS-CoV-2 RBD (recombinant) (SARS-CoV-2, UniProt P0DTC2). The experiment in a line: flow cytometry on cells. (In general: Flow cytometry measures light scatter and fluorescence of single cells or particles in a stream.)
Experiment [2] addresses T1, SARS-CoV-2 RBD (recombinant). Description: ELISA.
A further experiment deals with WIV-1 RBD (recombinant) (bat sarbecovirus WIV-1, UniProt U5WI05). The experiment in a line: ELISA. On the technique in general: In an ELISA, binding on a coated surface is turned into a signal by an enzyme label.
Experiment [3] addresses RacCS203 RBD (recombinant) (Bat coronavirus RacCS203). Description: ELISA.
In another experiment the target is Rs4231 RBD (recombinant) (Bat SARS-like coronavirus, isolate …, UniProt A0A2D1PXA9). The experiment in a line: ELISA.

B1: VA14_26 IgG (antibody, V domains shown)
VH: QVQLQQWGAGLLKPSDTLSLTCGISGGPFSGYYWSWIRQPPGKGLEWLGEINHSGITTYNPSLKSRGTISVDTSKRQISLKLASVTAADTAVYYCARFAYGDYGWDYSSDMDVWGKGTTVTVSS
VL: DIQLTQSPSTLSASVGDRVTITCRASQSISTWLAWHQQIPGKAPKLLIYRASTLQSGVPSRFSGSGSGTEFTLTISSLQPDDFATYYCQQYYSVRTFGQGTKVDIK
As for B1, the binding result in experiment [1] is given as “binds”.

B2: V1WT_06 IgG (antibody, V domains shown)
VH: EVQLVQSGAEVKKPGASVKVSCKASGYTFSSHGISWVRQAPGQGLEWMGWISTYNGNTNSAQNLQGRVTMTADTSTSTAYMELRSLRSDDTAVYYCARGPWGYCSGTSCYYWTPDNPAYSYHGMDVWGQGTTVTVSS
VL: not shown
Consider B2, for which the “fold increase in binding of the IgG over the Fab” value in experiment [2] was 1.3 fold.

B3: V1WT_06 Fab (Fab, V domains shown)
VH: B2 VH
VL: not shown
For the molecule B3, the binding result with WIV-1 RBD (recombinant) is reported as “binds”.

B4: V1WT_41 IgG (antibody, V domains shown)
VH: QVQLQESGPGLVKPSETVSVTCTVSGGSITRSNYYWGWIRQPPGKGLEWIGSIFYNGNTNYNPSLKSRLTISVDTSKNQFSLKLSSVTAADTAVYYCARTAPYYYDRSGYYQKEEYFQRWGQGTLVTVSS
VL: EIVMTQSPSTLSASVGDRVTITCRASQSISTWLAWYQQKPGKAPNLLIYQASSLESGVPSRFSGSGSGTEFTLTISSLQPDDFATYYCQQYNNYPRTFGQGTKLEIK
Take B4: the binding result (in experiment [3]; in the experiment with Rs4231 RBD (recombinant); in experiment [2]) was “binds” throughout.
